Publication PMC10967385, “Essential role of obscurin kinase-1 in cardiomyocyte coupling via N-cadherin phosphorylation” (JCI Insight, 2024)

T1: MBP-p120-catenin(311-747), middle portion of p120-catenin containing armadillo domains 1-8 fused to maltose … (UniProt P30999 311-747)
T1 construct: p120-catenin, middle portion containing armadillo domains 1-8, aa 311-747; source: recombinant protein (source in Supplemental Methods)
T1 sequence (looked up): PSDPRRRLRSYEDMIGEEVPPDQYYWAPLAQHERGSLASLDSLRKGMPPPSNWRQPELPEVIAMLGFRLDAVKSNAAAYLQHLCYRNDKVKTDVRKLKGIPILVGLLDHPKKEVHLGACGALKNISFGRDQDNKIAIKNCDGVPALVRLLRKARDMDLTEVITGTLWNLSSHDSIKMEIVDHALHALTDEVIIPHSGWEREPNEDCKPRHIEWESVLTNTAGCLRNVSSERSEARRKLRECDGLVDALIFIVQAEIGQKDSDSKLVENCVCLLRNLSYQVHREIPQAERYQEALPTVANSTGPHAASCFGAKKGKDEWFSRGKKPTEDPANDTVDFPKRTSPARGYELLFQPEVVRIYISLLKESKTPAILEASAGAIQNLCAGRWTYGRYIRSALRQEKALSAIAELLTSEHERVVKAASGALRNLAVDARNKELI


Target: T1, MBP-p120-catenin(311-747), middle …
Assay: ITC; VP-ITC, 37°C, PBS pH 7.4; GST-Ncad ligands (80-100 μM) titrated into 10 μM MBP-p120-catenin(311-747) in the sample chamber; control titrations subtracted; 1-site binding model; average of 3 replicates; number of sites fixed to 1 for the SE ligand
Details: both partners purified

Binder	Kd [µM]
GST-Ncad(746-906)-WT, recombinant GST-tagged cytoplasmic domain of N-cadherin (domain or fragment, mouse, UniProt P15116 746-906, looked up, source: recombinant protein (source in Supplemental Methods)) MKRRDKERQAKQLLIDPEDDVRDNILKYDEEGGGEEDQDYDLSQLQQPDTVEPDAIKPVGIRRLDERPIHAEPQYPVRSAAPHPGDIGDFINEGLKAADNDPTAPPYDSLLVFDYEGSGSTAGSLSSLNSSSSGGDQDYDYLNDWGPRFKKLADMYGGGDD	1.25
GST-Ncad(746-906)-SE, phosphomimic Ser-788-Glu GST-tagged cytoplasmic domain of N-cadherin (domain or fragment, mouse, UniProt P15116 746-906, looked up, source: recombinant protein (source in Supplemental Methods)) MKRRDKERQAKQLLIDPEDDVRDNILKYDEEGGGEEDQDYDLEQLQQPDTVEPDAIKPVGIRRLDERPIHAEPQYPVRSAAPHPGDIGDFINEGLKAADNDPTAPPYDSLLVFDYEGSGSTAGSLSSLNSSSSGGDQDYDYLNDWGPRFKKLADMYGGGDD	197
